Results reported in the supplement of paper PMC7125110.
± gives the standard error. For part of these data: Fewer inactive variants are shown than the library holds.

B1: glmS ribozyme (parent)
chain: AUAAAAGCGCCAGAACUACAGAAAUGUAGUUGACGAGGAGGAGGUUUAUCGAAUUUUCGGCGGAUGCCUCCAAA

What was measured:
Conditions in all cases: with glucosamine-6-phosphate
glucosamine-6-phosphate [1] = variants of: B1; test: kcat; higher = faster cleavage; RNA array
Method in brief: (§1)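 Weighted Michaelis–Menten fits across concentrations supplied kcat and KM, based on kobs from one- or two-exponential decay fits to normalised per-tile medians. The data came from barcoded ribozyme variants transcribed in situ by E. coli RNA polymerase on sequenced MiSeq chips and tracked at 37 °C by a hybridised Cy3 probe. Glucosamine-6-phosphate (40 μM to 10 mM) in HEPES/KCl/Mg(OAc)2 buffer was flowed in.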

glucosamine-6-phosphate [2] = variants of: B1; test: self-cleavage kobs at 160 uM GlcN6P; higher = faster cleavage; RNA array
Method in brief: as §1

glucosamine-6-phosphate [3] = variants of: B1; test: self-cleavage kobs at 640 uM GlcN6P; higher = faster cleavage; RNA array
Method in brief: as §1

glucosamine-6-phosphate [4] = variants of: B1; test: self-cleavage kobs at 2500 uM GlcN6P; higher = faster cleavage; RNA array
Method in brief: as §1

glucosamine-6-phosphate [5] = variants of: B1; test: self-cleavage kobs at 10000 uM GlcN6P; higher = faster cleavage; RNA array
Method in brief: as §1

glucosamine-6-phosphate [6] = variants of: B1; test: KM; higher = weaker cofactor use; RNA array
Method in brief: as §1

glucosamine-6-phosphate [7] = variants of: B1; test: self-cleavage kobs at 40 uM GlcN6P; higher = faster cleavage; RNA array
Method in brief: as §1

| Variant | kcat (glucosamine-6-phosphate [1]) [s⁻¹] | self-cleavage kobs at 160 uM GlcN6P (glucosamine-6-phosphate [2]) [s⁻¹] | self-cleavage kobs at 640 uM GlcN6P (glucosamine-6-phosphate [3]) [s⁻¹] | self-cleavage kobs at 2500 uM GlcN6P (glucosamine-6-phosphate [4]) [s⁻¹] | self-cleavage kobs at 10000 uM GlcN6P (glucosamine-6-phosphate [5]) [s⁻¹] | KM (glucosamine-6-phosphate [6]) [µM] | self-cleavage kobs at 40 uM GlcN6P (glucosamine-6-phosphate [7]) [s⁻¹] |
| --- | --- | --- | --- | --- | --- | --- | --- |
| A12C G60A | < 1e-05 | < 1e-05 | < 1e-05 |  |  |  |  |
| U69G C70A | 4.72e-05 ± 1.5e-05 | 4.55e-05 ± 1.3e-05 | 5.13e-05 ± 9.1e-06 | 7.85e-05 ± 1.2e-05 |  |  |  |
| G41A A53C | 0.000213 ± 5.7e-05 |  | 8.67e-05 ± 2.5e-05 | 0.000101 ± 2.7e-05 | 0.000202 ± 3.9e-05 |  |  |
| G29A U46C | 0.00025 ± 1.1e-05 |  | 6.39e-05 ± 2e-05 | 0.000139 ± 3.1e-05 | 0.000216 ± 6.1e-05 | 1880 ± 160 |  |
| A15G A33U | 0.0001 ± 9.2e-06 |  |  | 5.25e-05 ± 7e-06 | 7.91e-05 ± 6.4e-06 | 2530 ± 740 | < 1e-05 |
| G41C A42G | 0.00017 ± 1e-05 |  | 6.25e-05 ± 1e-05 | 0.000107 ± 1.5e-05 | 0.000158 ± 1.9e-05 | 1210 ± 190 |  |
| G41C A42U | 4.23e-05 ± 1.3e-06 | < 1e-05 |  |  | 3.82e-05 ± 6.7e-06 | 1050 ± 290 |  |
| A12C G66U C70U | 0.00136 ± 0.00036 |  | 0.000496 ± 0.00012 | 0.00128 ± 0.00028 | 0.000992 ± 0.00028 | 1190 ± 570 | 3.71e-05 ± 1.5e-05 |
